Among the data in US20160017022A1 are double labeling of EGFP-MAL expressing cells values, retold here.

This test concerns the target EGFP-MAL stably expressed on CHO cells. In words: FACS, CHO cells stably expressing EGFP-MAL.

For the substance “fluorescently labeled ETX (ETX^Alexa-647) (from UniProt Q02307 33-328) (ligand)”, the double labeling of EGFP-MAL expressing cells came out at 100%.
